{"source": "the supplement of paper PMC7125110", "parents": {"B1": {"name": "glmS ribozyme (parent)", "chain": "AUAAAAGCGCCAGAACUACAGAAAUGUAGUUGACGAGGAGGAGGUUUAUCGAAUUUUCGGCGGAUGCCUCCAAA"}}, "conditions_in_all_cases": "with glucosamine-6-phosphate", "key": {"glucosamine-6-phosphate [1]": {"variants_of": "B1", "assay": "self-cleavage kobs at 40 uM GlcN6P; higher = faster cleavage; RNA array", "how_it_was_run": "(§1)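 Barcoded ribozyme variants, transcribed in situ by E. coli RNA polymerase on sequenced MiSeq chips, were followed via a hybridised Cy3 probe at 37 °C. Glucosamine-6-phosphate ranged from 40 μM to 10 mM in HEPES/KCl/Mg(OAc)2 buffer. kobs came from decay fits to per-tile medians, and kcat and KM from weighted Michaelis–Menten fits.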"}, "glucosamine-6-phosphate [2]": {"variants_of": "B1", "assay": "self-cleavage kobs at 160 uM GlcN6P; higher = faster cleavage; RNA array", "how_it_was_run": "as §1"}, "glucosamine-6-phosphate [3]": {"variants_of": "B1", "assay": "self-cleavage kobs at 2500 uM GlcN6P; higher = faster cleavage; RNA array", "how_it_was_run": "as §1"}, "glucosamine-6-phosphate [4]": {"variants_of": "B1", "assay": "self-cleavage kobs at 10000 uM GlcN6P; higher = faster cleavage; RNA array", "how_it_was_run": "as §1"}, "glucosamine-6-phosphate [5]": {"variants_of": "B1", "assay": "self-cleavage kobs at 640 uM GlcN6P; higher = faster cleavage; RNA array", "how_it_was_run": "as §1"}}, "note": "± gives the standard error. This sample holds only a part of the variants without activity."}
{"variant": "AUAAAAGUGCCAGAACUACAGAAAUGUAGUUGACCAGGAGGAGGUUUAUCGAAUUUUCGGCGGAUGCCUCCAAA", "values": [{"measurement": "self-cleavage kobs at 40 uM GlcN6P", "setting": "glucosamine-6-phosphate [1]", "result": "< 1e-05", "unit": "s⁻¹"}, {"measurement": "self-cleavage kobs at 160 uM GlcN6P", "setting": "glucosamine-6-phosphate [2]", "result": "< 1e-05", "unit": "s⁻¹"}, {"measurement": "self-cleavage kobs at 2500 uM GlcN6P", "setting": "glucosamine-6-phosphate [3]", "result": "< 1e-05", "unit": "s⁻¹"}, {"measurement": "self-cleavage kobs at 10000 uM GlcN6P", "setting": "glucosamine-6-phosphate [4]", "result": "< 1e-05", "unit": "s⁻¹"}]}
{"variant": "AUAAAAGCGCCAGAACUACAGAAAUGUAGUUUACUAGGAGGAGGUUUAUCGAAUUUUCGGCGGAUGCCUCCAAA", "values": [{"measurement": "self-cleavage kobs at 40 uM GlcN6P", "setting": "glucosamine-6-phosphate [1]", "result": "< 1e-05", "unit": "s⁻¹"}, {"measurement": "self-cleavage kobs at 160 uM GlcN6P", "setting": "glucosamine-6-phosphate [2]", "result": "< 1e-05", "unit": "s⁻¹"}, {"measurement": "self-cleavage kobs at 640 uM GlcN6P", "setting": "glucosamine-6-phosphate [5]", "result": "< 1e-05", "unit": "s⁻¹"}, {"measurement": "self-cleavage kobs at 2500 uM GlcN6P", "setting": "glucosamine-6-phosphate [3]", "result": "< 1e-05", "unit": "s⁻¹"}, {"measurement": "self-cleavage kobs at 10000 uM GlcN6P", "setting": "glucosamine-6-phosphate [4]", "result": "< 1e-05", "unit": "s⁻¹"}]}
{"variant": "AUAAAAGCGCCAGAACUACAGAAAUGUAGUUGACGAGGAGGAAGUUUAUCAAAUUUUCGGCGGAUGCCUCCAAA", "values": [{"measurement": "self-cleavage kobs at 40 uM GlcN6P", "setting": "glucosamine-6-phosphate [1]", "result": "< 1e-05", "unit": "s⁻¹"}, {"measurement": "self-cleavage kobs at 160 uM GlcN6P", "setting": "glucosamine-6-phosphate [2]", "result": "< 1e-05", "unit": "s⁻¹"}, {"measurement": "self-cleavage kobs at 2500 uM GlcN6P", "setting": "glucosamine-6-phosphate [3]", "result": "< 1e-05", "unit": "s⁻¹"}, {"measurement": "self-cleavage kobs at 10000 uM GlcN6P", "setting": "glucosamine-6-phosphate [4]", "result": "< 1e-05", "unit": "s⁻¹"}]}
{"variant": "AUAAAAGCUCCAGAACUACAGAAAUGUAGUUGACGAGGAGUGGGUUUAUCGAAUUUUCGGCGGUUGCCUCUAAA", "values": [{"measurement": "self-cleavage kobs at 40 uM GlcN6P", "setting": "glucosamine-6-phosphate [1]", "result": "< 1e-05", "unit": "s⁻¹"}, {"measurement": "self-cleavage kobs at 10000 uM GlcN6P", "setting": "glucosamine-6-phosphate [4]", "result": "< 1e-05", "unit": "s⁻¹"}]}
{"variant": "AUAAAAGGGCCAGAACUACAGAAAUGUAGUUGACGAGGAGGAGGGUGAUCGAAUUUUUGGCGGAUUCCUCUAAA", "values": [{"measurement": "self-cleavage kobs at 40 uM GlcN6P", "setting": "glucosamine-6-phosphate [1]", "result": "< 1e-05", "unit": "s⁻¹"}]}
{"variant": "AUAAAAGCGCCAGAACUACAGAAAUGUAGUUGACAUUGGGGAGGUUUAUCGAACUUUCGGCGGAUGCUUCCAAA", "values": [{"measurement": "self-cleavage kobs at 40 uM GlcN6P", "setting": "glucosamine-6-phosphate [1]", "result": "5.13e-05 ± 2.2e-05", "unit": "s⁻¹"}]}
{"variant": "AUAAAAGCGCCAGAAGUACAGAAAUGUAGUUGACGAGGAGGGGGUUUAUCGAAUUUUCGGCGGAUGCCUCCAAA", "values": [{"measurement": "self-cleavage kobs at 40 uM GlcN6P", "setting": "glucosamine-6-phosphate [1]", "result": "0.000233 ± 5.6e-05", "unit": "s⁻¹"}, {"measurement": "self-cleavage kobs at 160 uM GlcN6P", "setting": "glucosamine-6-phosphate [2]", "result": "0.000208 ± 9.6e-05", "unit": "s⁻¹"}, {"measurement": "self-cleavage kobs at 640 uM GlcN6P", "setting": "glucosamine-6-phosphate [5]", "result": "0.000804 ± 0.0003", "unit": "s⁻¹"}, {"measurement": "self-cleavage kobs at 10000 uM GlcN6P", "setting": "glucosamine-6-phosphate [4]", "result": "0.00496 ± 0.001", "unit": "s⁻¹"}]}
{"variant": "AUAAAAGCGCCAGAACUACAGAAAUGUAUUUGACGAGGAGGAGGUUUAUGGAGUGUUCGGCGGAUGGCUCCAAA", "values": [{"measurement": "self-cleavage kobs at 40 uM GlcN6P", "setting": "glucosamine-6-phosphate [1]", "result": "0.000349 ± 0.00015", "unit": "s⁻¹"}]}
{"variant": "AUAAAAGCGCUAGAACUACAGAAAUGUAGUUGAUGAGGAGGAGGUUUAUCGAAUUUUCGGCGGAUGCCUCCAAA", "values": [{"measurement": "self-cleavage kobs at 40 uM GlcN6P", "setting": "glucosamine-6-phosphate [1]", "result": "< 1e-05", "unit": "s⁻¹"}, {"measurement": "self-cleavage kobs at 640 uM GlcN6P", "setting": "glucosamine-6-phosphate [5]", "result": "< 1e-05", "unit": "s⁻¹"}, {"measurement": "self-cleavage kobs at 10000 uM GlcN6P", "setting": "glucosamine-6-phosphate [4]", "result": "< 1e-05", "unit": "s⁻¹"}]}
{"variant": "AUAAAAGCGCCAGAACUACAGAAAUGUAGUUGACGAGGAGAAGGUUUAGCGAAUUUUCGGCGGAUGUCUCUAAA", "values": [{"measurement": "self-cleavage kobs at 40 uM GlcN6P", "setting": "glucosamine-6-phosphate [1]", "result": "< 1e-05", "unit": "s⁻¹"}, {"measurement": "self-cleavage kobs at 10000 uM GlcN6P", "setting": "glucosamine-6-phosphate [4]", "result": "< 1e-05", "unit": "s⁻¹"}]}
{"variant": "AUAAAAGCGCCAGAACUACAGAAAUGUAGUUGACGAUGAGGAGGUUUUUCGAAUUUUCGGCGGAUGCAUCCAAA", "values": [{"measurement": "self-cleavage kobs at 40 uM GlcN6P", "setting": "glucosamine-6-phosphate [1]", "result": "< 1e-05", "unit": "s⁻¹"}, {"measurement": "self-cleavage kobs at 10000 uM GlcN6P", "setting": "glucosamine-6-phosphate [4]", "result": "< 1e-05", "unit": "s⁻¹"}]}
{"variant": "AUAAAAGCGCCAGAACUACAGAAAUGUAGUUGACGAGGAAGAGGUUUAUCGAAUUUUCGGCGAAUGCCUCCAAA", "values": [{"measurement": "self-cleavage kobs at 40 uM GlcN6P", "setting": "glucosamine-6-phosphate [1]", "result": "< 1e-05", "unit": "s⁻¹"}, {"measurement": "self-cleavage kobs at 2500 uM GlcN6P", "setting": "glucosamine-6-phosphate [3]", "result": "< 1e-05", "unit": "s⁻¹"}, {"measurement": "self-cleavage kobs at 10000 uM GlcN6P", "setting": "glucosamine-6-phosphate [4]", "result": "< 1e-05", "unit": "s⁻¹"}]}
{"variant": "AUAAAAGCGCCAGAACUACAGAAAUGUAGUGGACGAGGAGGAGGUUUAUGGAAUUUUCGGCGGAUGCCUCCAAA", "values": [{"measurement": "self-cleavage kobs at 40 uM GlcN6P", "setting": "glucosamine-6-phosphate [1]", "result": "6.22e-05 ± 1.5e-05", "unit": "s⁻¹"}, {"measurement": "self-cleavage kobs at 160 uM GlcN6P", "setting": "glucosamine-6-phosphate [2]", "result": "0.000172 ± 3e-05", "unit": "s⁻¹"}, {"measurement": "self-cleavage kobs at 640 uM GlcN6P", "setting": "glucosamine-6-phosphate [5]", "result": "0.000175 ± 4.5e-05", "unit": "s⁻¹"}, {"measurement": "self-cleavage kobs at 2500 uM GlcN6P", "setting": "glucosamine-6-phosphate [3]", "result": "0.00013 ± 1.9e-05", "unit": "s⁻¹"}, {"measurement": "self-cleavage kobs at 10000 uM GlcN6P", "setting": "glucosamine-6-phosphate [4]", "result": "3.31e-05 ± 1.1e-05", "unit": "s⁻¹"}]}
{"variant": "AUAAAGGCGCCAGAACUACAGAAAUGUAGUUGACGAGGAGGAGGUUUAUCGACUUGUCGGCGGAUGCCUCCAAA", "values": [{"measurement": "self-cleavage kobs at 40 uM GlcN6P", "setting": "glucosamine-6-phosphate [1]", "result": "< 1e-05", "unit": "s⁻¹"}]}
